The record followed here is PMC11549370, “Two distinct regulatory pathways govern Cct2-Atg8 binding in the process of solid aggrephagy” (EMBO Reports, 2024).

In one assay the target is Atg11 (UniProt Q12527). The experiment in a line: anti-FLAG co-IP, anti-HA blot. To be noted: reference: wild-type 3×HA-Cct2; sites S412,S470.
Another assay addresses LC3C (UniProt Q9BXW4). The experiment in a line: anti-FLAG co-IP, anti-HA blot. The following applies: reference: HA-CCT2 wild type; sites S458.
Another assay concerns the target T1, GST-Cct2 I487E (S. cerevisiae, UniProt P39076 1-527, I487E).
T1 construct: Cct2, S. cerevisiae; also called pGEX-4T-1-Cct2 I487E; source: E. coli, purified; not shown: GST, N-terminal, kept
The experiment in a line: pull-down; in vitro GST pulldown: GST-tagged protein on GST beads, prey added in binding buffer B (1 mM EDTA, 1 mM EGTA, 150 mM NaCl, 1% Triton X-100 in 1×PBS), 3 h, 4 °C; SDS-PAGE, Coomassie staining. The following applies: both partners purified.

A further assay addresses T2, GST-Cct2 D473A (S. cerevisiae, UniProt P39076 1-527, D473A).
T2 construct: Cct2, S. cerevisiae; also called pGEX-4T-1-Cct2 D473A; source: E. coli, purified; not shown: GST, N-terminal, kept
Described as above. To be noted: both partners purified.

Assay [1] deals with T3, GST-Cct2 S412A-S470A (2A) (S. cerevisiae, UniProt P39076 1-527, S412A | S470A).
T3 construct: Cct2, S. cerevisiae; also called Cct2-2A mutant protein; pGEX-4T-1-Cct2 S412A-S470A(2A); source: E. coli, purified; not shown: GST, N-terminal, kept
The description is as above. To be noted: both partners purified.

For the next assay, the target named is T4, GST-Cct2 (S. cerevisiae, UniProt P39076 1-527).
T4 construct: Cct2, subunit of the TRiC complex, S. cerevisiae; the CCT2 gene cloned into pGEX-4T-1; also called WT GST-Cct2; pGEX-4T-1-Cct2; source: E. coli, purified; not shown: GST, N-terminal, kept
Described as above. The following applies: both partners purified.

Assay [2] deals with T5, GST-Cct2 phosphorylated in vitro by Atg1 (S. cerevisiae, UniProt P39076 1-527, phosphorylated by Atg1; the paper maps the sites to S412 and S470).
T5 construct: Cct2, S. cerevisiae; also called phosphorylated GST-Cct2 WT; phosphorylated products; source: E. coli, purified, then incubated with WT Atg1-3×FLAG (from yeast) and ATP and enriched on GST beads; not shown: GST, N-terminal, kept
The experiment in a line: pull-down; GST-Cct2 first incubated with Atg1-3×FLAG and ATP (30 °C, 30 min), enriched on GST beads, then His-Atg8 or Atg11 CC4 added in interaction buffer (1 mM EDTA, 1 mM EGTA, 150 mM NaCl, 1% Triton X-100 in 1×PBS), 2 h, 4 °C; Coomassie staining. To be noted: both partners purified.

T1 sequence (P39076 whole entry I487E): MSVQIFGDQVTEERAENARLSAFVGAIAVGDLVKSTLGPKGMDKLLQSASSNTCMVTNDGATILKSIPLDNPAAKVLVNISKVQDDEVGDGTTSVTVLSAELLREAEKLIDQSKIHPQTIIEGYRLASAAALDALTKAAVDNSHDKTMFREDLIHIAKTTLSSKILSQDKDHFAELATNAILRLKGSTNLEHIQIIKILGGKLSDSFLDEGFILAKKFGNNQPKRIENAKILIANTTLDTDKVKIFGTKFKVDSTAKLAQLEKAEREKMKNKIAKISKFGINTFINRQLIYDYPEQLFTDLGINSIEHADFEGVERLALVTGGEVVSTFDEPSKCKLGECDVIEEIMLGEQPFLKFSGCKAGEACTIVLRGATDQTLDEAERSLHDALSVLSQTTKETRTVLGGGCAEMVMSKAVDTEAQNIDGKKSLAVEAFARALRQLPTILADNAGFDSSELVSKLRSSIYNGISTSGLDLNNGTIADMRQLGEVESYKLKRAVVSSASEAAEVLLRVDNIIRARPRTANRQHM
T2 sequence (P39076 whole entry D473A): as the sequence (P39076 whole entry I487E) above, with D473A, E487I counted along it
T3 sequence (P39076 whole entry S412A/S470A): as the sequence (P39076 whole entry I487E) above, with S412A, S470A, E487I counted along it
T4 sequence (P39076 whole entry): as the sequence (P39076 whole entry I487E) above, with E487I counted along it
T5 sequence (P39076 whole entry): as the sequence (P39076 whole entry I487E) above, with E487I counted along it

On to “Cct2 (from UniProt P39076) 3×HA-Cct2 S412A-S470A”, for which the “binding against the reference” value in the assay with Atg11 was “weaker”.

“CCT2 (hCCT2) (from UniProt P78371) HA-CCT2 S458A”: the “binding against the reference” value with LC3C is listed as “weaker”.

B1: His-Atg8 (natural protein, S. cerevisiae, UniProt P38182 1-117, looked up)
chain: MKSTFKSEYPFEKRKAESERIADRFKNRIPVICEKAEKSDIPEIDKRKYLVPADLTVGQFVYVIRKRIMLPPEKAIFIFVNDTLPPTAALMSAIYQEHKDKDGFLYVTYSGENTFGR
notes: Atg8, S. cerevisiae; source: E. coli, purified; not shown: His, N-terminal, kept
Regarding B1, the binding result (with GST-Cct2 I487E; with GST-Cct2 D473A; in assay [1]; in the assay with GST-Cct2; in assay [2]) was “binds” each time.
